The source of these data is PMC6368300.

The target in the assay is Pyruvate Kinase M2 (human) (UniProt P14618). The assay is described as follows: SPR; Autolab SPR; PKM2 immobilised by NHS/EDC coupling; Histone H3 100 nM-1000 nM as analyte; 10 mM HEPES pH 7.4, 150 mM NaCl, 3 mM EDTA, 0.05% NP-40; 25°C; 1:1 Langmuir model, KD from the equilibrium equation; triplicate. On the technique in general: SPR reads the build-up and loss of mass on a sensor chip optically.
Chain of UniProt P14618 (P14618 whole entry): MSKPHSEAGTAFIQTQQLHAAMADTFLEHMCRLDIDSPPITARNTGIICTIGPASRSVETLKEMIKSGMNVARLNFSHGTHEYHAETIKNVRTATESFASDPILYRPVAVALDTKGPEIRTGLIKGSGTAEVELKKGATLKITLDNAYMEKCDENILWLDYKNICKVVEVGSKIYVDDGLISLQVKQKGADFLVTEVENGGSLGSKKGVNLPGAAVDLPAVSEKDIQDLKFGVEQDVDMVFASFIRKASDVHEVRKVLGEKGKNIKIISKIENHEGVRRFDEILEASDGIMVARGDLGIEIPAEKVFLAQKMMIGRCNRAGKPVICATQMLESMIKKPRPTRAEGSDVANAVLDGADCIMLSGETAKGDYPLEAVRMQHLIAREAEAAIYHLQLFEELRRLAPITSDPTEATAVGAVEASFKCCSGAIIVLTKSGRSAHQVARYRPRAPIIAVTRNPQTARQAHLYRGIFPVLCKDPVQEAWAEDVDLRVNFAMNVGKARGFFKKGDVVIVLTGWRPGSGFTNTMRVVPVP

Broadly, the Kd is a measure of binding affinity in units of concentration. High values mean weaker binding, low ones tighter binding. The substance “Histone H3 (from UniProt P84233 1-136) (natural protein; other documents disagree on this pair)” gave a Kd of 6.39 µM.
